Measurements: patent US20100015130

How the values were obtained:
[1] = molecular target: T1, GST-tagged mouse DISC1 fragment 596-852aa (UniProt Q811T9)
T1 sequence: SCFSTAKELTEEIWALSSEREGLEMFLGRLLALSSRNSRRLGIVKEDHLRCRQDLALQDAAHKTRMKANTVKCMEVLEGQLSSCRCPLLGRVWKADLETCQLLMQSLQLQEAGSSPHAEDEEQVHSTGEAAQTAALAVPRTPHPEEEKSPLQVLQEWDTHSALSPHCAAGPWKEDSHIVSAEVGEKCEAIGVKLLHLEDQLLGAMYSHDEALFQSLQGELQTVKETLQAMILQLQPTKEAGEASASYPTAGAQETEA

[2] = molecular target: T2, GST-tagged mouse DISC1 fragment 1-220aa (UniProt Q811T9)
T2 sequence: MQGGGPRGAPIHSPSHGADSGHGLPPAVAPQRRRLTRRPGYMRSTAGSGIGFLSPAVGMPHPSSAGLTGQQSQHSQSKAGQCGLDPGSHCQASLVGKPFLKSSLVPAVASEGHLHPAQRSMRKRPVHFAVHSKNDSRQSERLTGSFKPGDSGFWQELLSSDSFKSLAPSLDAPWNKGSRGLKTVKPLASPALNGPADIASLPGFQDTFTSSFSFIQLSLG

[3] = molecular target: T3, GST-tagged mouse DISC1 fragment 356-595aa (UniProt Q811T9)
T3 sequence: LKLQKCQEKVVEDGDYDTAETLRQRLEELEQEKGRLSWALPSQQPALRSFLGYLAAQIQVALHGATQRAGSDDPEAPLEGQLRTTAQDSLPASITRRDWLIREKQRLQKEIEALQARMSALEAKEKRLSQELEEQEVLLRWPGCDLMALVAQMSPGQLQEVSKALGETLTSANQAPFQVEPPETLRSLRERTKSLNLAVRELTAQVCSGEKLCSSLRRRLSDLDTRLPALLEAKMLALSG

[4] = molecular target: T4, GST-tagged mouse DISC1 fragment 221-355aa (UniProt Q811T9)
T4 sequence: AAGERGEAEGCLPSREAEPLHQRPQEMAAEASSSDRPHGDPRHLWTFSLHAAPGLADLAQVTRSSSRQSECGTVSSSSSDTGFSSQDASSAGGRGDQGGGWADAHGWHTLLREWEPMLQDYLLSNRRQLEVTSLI

Substance: GST-GSK3β (recombinant, Active Motif)
- in vitro kinase assay: GST-β-catenin phosphorylation, GST-axin phosphorylation and GSK3β autophosphorylation at Y216 [1]: none of the other 3 DISC1 fragments, GST-p25, or GST-CASK proteins inhibited GSK3β activity at this concentration (0.5 µM)
- GSK3β Y216 phosphorylation, dose response in vitro [2]: no inhibition of GSK3β Y216 phosphorylation was observed at 0.1 µM and the inhibition of phosphorylation plateaued at 1 µM
- in vitro kinase assay: GST-β-catenin phosphorylation, GST-axin phosphorylation and GSK3β autophosphorylation at Y216 [2]: potently inhibited β-catenin, axin and GSK3β phosphorylation at 0.5 µM
- GSK3β autophosphorylation (Y216), in vitro kinase assay [3]: at higher concentrations (2 µM), DISC1 fragments spanning 221-355 and 356-595 started to inhibit GSK3β autophosphorylation
- in vitro kinase assay: GST-β-catenin phosphorylation, GST-axin phosphorylation and GSK3β autophosphorylation at Y216 [3]: none of the other 3 DISC1 fragments, GST-p25, or GST-CASK proteins inhibited GSK3β activity at this concentration (0.5 µM)
- GSK3β autophosphorylation (Y216), in vitro kinase assay [4]: at higher concentrations (2 µM), DISC1 fragments spanning 221-355 and 356-595 started to inhibit GSK3β autophosphorylation
- in vitro kinase assay: GST-β-catenin phosphorylation, GST-axin phosphorylation and GSK3β autophosphorylation at Y216 [4]: none of the other 3 DISC1 fragments, GST-p25, or GST-CASK proteins inhibited GSK3β activity at this concentration (0.5 µM)
